One may read the Kd as the constant that tells how readily two partners part at equilibrium.

Assay [1] has as its target RyR2-S2814D (CaMKII phosphomimetic), knock-in mouse (mouse (endogenous in ventricular myocytes)) (UniProt E9Q401). Put plainly: FRET or BRET. For orientation: In BRET a luciferase serves as donor, and the signal depends on an acceptor being close.
In assay [2] the target is RyR2-S2814A (non-phosphorylatable), knock-in mouse (mouse (endogenous in ventricular myocytes)) (UniProt E9Q401). Put plainly: FRET or BRET.

Consider “fluorescent DPc10 peptide (F-DPc10; RyR2 residues 2460-2495) (from UniProt P30957 2460-2495)”, for which the fold faster binding (wash-in) vs. S2814A myocytes in assay [1] worked out at 2 fold. Regarding “fluorescent calmodulin (F-CaM) (from UniProt P0DP23 1-149) (natural protein)”, the Kd in assay [2] was determined as 20 nM; in assay [1] it was 72 nM.

The values above are taken from article PMC5026590.
